Test results reported in paper PMC3541406, “Solution Structure of an Archaeal DNA Binding Protein with an Eukaryotic Zinc Finger Fold”.

Legend:
Settings in all cases: protein: recombinant; tags: none; blunt
AFV1p06 (ORF59a) [1] = molecular target: T1, AFV1p06 (ORF59a) (Acidianus filamentous virus 1? (AFV1, …, UniProt Q70LE5 1-59)); assay: competition; vs labelled dsATcomb 75 nM, 0.5 uM protein; 50 mM HEPES pH 7.4, 10 uM ZnCl2, 150 mM NaCl, 5% glycerol, 0.02% Tween, 3 mM DTT, 50 ng/uL salmon sperm DNA, 15 min at 48 C; 6% native PAGE in TBE
T1 sequence: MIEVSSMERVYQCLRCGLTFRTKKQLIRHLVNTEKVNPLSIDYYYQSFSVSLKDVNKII

AFV1p06 (ORF59a) [2] = molecular target: T1, AFV1p06 (ORF59a); assay: EMSA; 10 uM ZnCl2, 50 ng/uL salmon sperm DNA, 75 nM probe, 0-2 uM protein; 50 mM HEPES pH 7.4, 10 uM ZnCl2, 150 mM NaCl, 5% glycerol, 0.02% Tween, 3 mM DTT, 50 ng/uL salmon sperm DNA, 15 min at 48 C; 6% native PAGE in TBE
AFV1p06 (ORF59a) [3] = molecular target: T1, AFV1p06 (ORF59a); assay: competition; vs labelled dsGCcomb 75 nM, 0.5 uM protein; 50 mM HEPES pH 7.4, 10 uM ZnCl2, 150 mM NaCl, 5% glycerol, 0.02% Tween, 3 mM DTT, 50 ng/uL salmon sperm DNA, 15 min at 48 C; 6% native PAGE in TBE

B1: dsGCcomb (dsDNA)
DNA 1: AGGGTGGCAGCGTCGGAGCCTCGCA
DNA 2: TGCGAGGCTCCGACGCTGCCACCCT
B1 was tested, and the binding signal (AFV1p06 (ORF59a) [1]) was ~0.5 molar ratio of cold dsGCcomb to hot dsATcomb giving clear signal decrease and the binding signal (AFV1p06 (ORF59a) [2]) was ≥ 2 fold more efficient than dsATcomb.

B2: dsATcomb (dsDNA)
DNA 1: AATGATTCTAAGTATCTTAGAAACA
DNA 2: TGTTTCTAAGATACTTAGAATCATT
B2 was tested, and the binding signal (AFV1p06 (ORF59a) [3]) was ~5 molar ratio of cold dsATcomb to hot dsGCcomb for similar displacement.
